Source: US20230035235A1 (published 2023)
Values belong to the binder of their own block, whether it stands above or below them.

Key:
SMARCE1 = molecular target: T1, SMARCE1 (human, UniProt Q969G3 1-411); experiment: HA affinity purification from HEK-293T nuclear extract, glycerol gradient fraction 15, mass spectrometry (co-purification in the complex)
T1 construct: also called BAF57; Q969G3_SMCE1

ARID1A = molecular target: T2, ARID1A (human, UniProt O14497 2-2285); experiment: as above
T2 construct: also called BAF250A; O14497_ARI1A

[1] = molecular target: T3, A0A0A0MT49 (gene symbol printed cut off as 'SMA', about 188 kDa) (human); experiment: as above
T3 construct: Separate database entry of the search; gene symbol cut off in print

[2] = molecular target: T4, G5E975 (gene symbol printed cut off as 'SMA', 45.0 kDa) (human); experiment: as above
T4 construct: Separate database entry of the search; gene symbol cut off in print

SS18 = molecular target: T5, SS18 (human, UniProt Q15532 2-418, limits assumed); experiment: as above
T5 construct: also called Q15532_SSXT

[3] = molecular target: T6, H0Y3S9 (gene symbol printed cut off as 'ARID', 29.4 kDa) (human); experiment: as above
T6 construct: Which ARID gene is meant cannot be told from the print

[4] = molecular target: T7, DPF3, entry F8W7T1 (46.4 kDa) (human); experiment: as above
T7 construct: Separate database entry of DPF3; also called F8W7T1_F8W7

SMARCC1 = molecular target: T8, SMARCC1 (human, UniProt Q92922 2-1105); experiment: as above
T8 construct: also called BAF155; Q92922_SMRC1

[5] = molecular target: T9, DPF1, entry C8C3P2 (45.0 kDa) (human); experiment: as above
T9 construct: Separate database entry of DPF1; also called C8C3P2_C8C3

[6] = molecular target: T10, PBRM1, entry C9J053 (13.6 kDa) (human); experiment: as above
T10 construct: Separate fragment entry; gene symbol cut off in print; also called C9J053_C9J053

ARID1B = molecular target: T11, ARID1B (human, UniProt Q8NFD5 84-2319, limits assumed); experiment: as above
T11 construct: also called BAF250B; Q8NFD5_ARI1B

SMARCA2 = molecular target: T12, SMARCA2 (human, UniProt P51531 1-1590, limits assumed); experiment: as above
T12 construct: also called BRM; BAF190

SMARCC2 = molecular target: T13, SMARCC2 (human, UniProt Q8TAQ2 1-1214, limits assumed); experiment: as above
T13 construct: also called BAF170; Q8TAQ2_SMRC2

SMARCA4 [7] = molecular target: T14, SMARCA4 (human, UniProt P51532 1-1647, limits assumed); experiment: as above
T14 construct: also called BRG1; BAF190

ARID2 = molecular target: T15, ARID2 (human, UniProt Q68CP9 2-1835); experiment: as above
T15 construct: also called BAF200; Q68CP9_ARID2

SMARCA4 [8] = molecular target: T16, SMARCA4 (human, UniProt P51532 1-1647, limits assumed); experiment: inter-protein BS3 crosslinks (CX-MS), HA-BRD7-purified PBAF complexes from HEK-293T
T16 construct: Endogenous PBAF subunit; numbering on the printed UniProt entry; also called BRG1; BAF190

[9] = molecular target: T17, SMARCC1 (SWI/SNF related, matrix associated, actin dependent regulator of chromatin subfamily c member 1) (human, UniProt Q92922 1-1105); experiment: HA-GLTSCR1L purification from HEK-293T cells, silver stain and gradient MS
T17 construct: also called BAF155; HA-SMARCC1

[10] = molecular target: T18, SMARCA4 (SWI/SNF related, matrix associated, actin dependent regulator of chromatin, subfamily a, member 4) (human, UniProt P51532 1-1647, limits assumed); experiment: inter-protein BS3 crosslink, CX-MS of HA-PHF10-purified PBAF complexes from HEK-293T cells
T18 construct: Endogenous subunit co-purified in native PBAF complex; The crosslink positions count on P51532; also called BRG1; BAF190

T7 sequence (Q92784 whole entry): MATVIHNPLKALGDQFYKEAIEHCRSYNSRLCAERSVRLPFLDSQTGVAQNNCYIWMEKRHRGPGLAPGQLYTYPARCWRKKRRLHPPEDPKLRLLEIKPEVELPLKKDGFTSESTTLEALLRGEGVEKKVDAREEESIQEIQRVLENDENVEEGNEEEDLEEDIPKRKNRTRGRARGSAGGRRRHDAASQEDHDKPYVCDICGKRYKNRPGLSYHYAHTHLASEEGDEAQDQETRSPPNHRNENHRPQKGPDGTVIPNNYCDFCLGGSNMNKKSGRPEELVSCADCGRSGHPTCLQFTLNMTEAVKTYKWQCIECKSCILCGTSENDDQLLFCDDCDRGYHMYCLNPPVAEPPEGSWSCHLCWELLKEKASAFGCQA
T11 sequence (Q8NFD5 84-2319 limits assumed, form in doubt): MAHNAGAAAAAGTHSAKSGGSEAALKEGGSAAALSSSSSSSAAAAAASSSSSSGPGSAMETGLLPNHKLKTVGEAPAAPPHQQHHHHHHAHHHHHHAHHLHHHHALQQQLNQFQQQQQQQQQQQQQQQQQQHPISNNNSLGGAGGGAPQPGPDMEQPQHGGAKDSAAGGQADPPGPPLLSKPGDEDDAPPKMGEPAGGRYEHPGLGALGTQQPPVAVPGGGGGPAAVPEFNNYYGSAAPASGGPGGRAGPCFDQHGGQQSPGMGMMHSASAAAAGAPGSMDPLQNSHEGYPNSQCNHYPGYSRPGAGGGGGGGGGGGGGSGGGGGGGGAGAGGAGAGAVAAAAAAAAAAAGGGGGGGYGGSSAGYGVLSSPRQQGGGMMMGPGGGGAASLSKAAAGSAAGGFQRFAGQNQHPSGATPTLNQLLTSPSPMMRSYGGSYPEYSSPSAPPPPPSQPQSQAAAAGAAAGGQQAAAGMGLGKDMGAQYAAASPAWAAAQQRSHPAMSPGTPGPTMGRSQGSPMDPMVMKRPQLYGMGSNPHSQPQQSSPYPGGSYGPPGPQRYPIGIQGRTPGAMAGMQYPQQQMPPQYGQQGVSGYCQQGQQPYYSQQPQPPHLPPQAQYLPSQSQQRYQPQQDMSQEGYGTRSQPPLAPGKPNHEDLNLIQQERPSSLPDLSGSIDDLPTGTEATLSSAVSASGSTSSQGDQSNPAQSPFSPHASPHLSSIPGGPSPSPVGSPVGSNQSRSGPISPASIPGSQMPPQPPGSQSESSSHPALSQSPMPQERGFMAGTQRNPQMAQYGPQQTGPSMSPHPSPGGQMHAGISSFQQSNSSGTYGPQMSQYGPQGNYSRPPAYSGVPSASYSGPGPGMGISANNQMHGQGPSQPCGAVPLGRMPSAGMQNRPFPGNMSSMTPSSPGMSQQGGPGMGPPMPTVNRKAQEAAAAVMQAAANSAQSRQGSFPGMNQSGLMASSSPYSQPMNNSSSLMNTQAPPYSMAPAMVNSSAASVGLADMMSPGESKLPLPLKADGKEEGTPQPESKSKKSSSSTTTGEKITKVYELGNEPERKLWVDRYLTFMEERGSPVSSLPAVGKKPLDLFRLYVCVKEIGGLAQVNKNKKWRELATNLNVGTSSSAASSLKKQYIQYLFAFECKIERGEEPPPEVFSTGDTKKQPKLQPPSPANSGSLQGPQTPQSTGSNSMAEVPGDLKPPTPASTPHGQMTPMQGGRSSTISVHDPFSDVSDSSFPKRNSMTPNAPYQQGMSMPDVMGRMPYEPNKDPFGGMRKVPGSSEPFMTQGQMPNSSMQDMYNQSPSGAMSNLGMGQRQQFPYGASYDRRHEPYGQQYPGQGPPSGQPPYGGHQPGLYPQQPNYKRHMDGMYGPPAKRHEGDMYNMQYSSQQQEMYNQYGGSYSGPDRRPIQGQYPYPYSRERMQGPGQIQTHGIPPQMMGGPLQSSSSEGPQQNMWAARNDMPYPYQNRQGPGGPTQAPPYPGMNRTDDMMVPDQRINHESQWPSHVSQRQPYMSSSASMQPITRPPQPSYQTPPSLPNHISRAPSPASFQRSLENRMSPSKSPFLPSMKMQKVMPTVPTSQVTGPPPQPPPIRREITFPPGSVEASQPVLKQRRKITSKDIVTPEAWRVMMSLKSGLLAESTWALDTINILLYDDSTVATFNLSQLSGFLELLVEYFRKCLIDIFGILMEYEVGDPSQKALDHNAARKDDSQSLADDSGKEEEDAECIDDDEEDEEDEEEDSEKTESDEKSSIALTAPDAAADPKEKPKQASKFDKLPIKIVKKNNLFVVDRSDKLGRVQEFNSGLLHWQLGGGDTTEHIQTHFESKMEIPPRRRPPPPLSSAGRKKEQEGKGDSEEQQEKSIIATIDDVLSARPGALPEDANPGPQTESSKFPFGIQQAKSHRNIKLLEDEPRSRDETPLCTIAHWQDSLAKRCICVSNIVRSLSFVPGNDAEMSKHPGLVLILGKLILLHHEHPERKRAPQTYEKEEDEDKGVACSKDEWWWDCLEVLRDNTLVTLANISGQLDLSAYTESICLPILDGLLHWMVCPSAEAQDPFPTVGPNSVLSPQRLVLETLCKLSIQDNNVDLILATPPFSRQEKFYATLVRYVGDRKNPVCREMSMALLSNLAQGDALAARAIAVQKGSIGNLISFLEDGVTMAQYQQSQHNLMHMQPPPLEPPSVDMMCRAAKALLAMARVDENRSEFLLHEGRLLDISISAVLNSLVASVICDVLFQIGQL
T1 sequence (Q969G3 whole entry): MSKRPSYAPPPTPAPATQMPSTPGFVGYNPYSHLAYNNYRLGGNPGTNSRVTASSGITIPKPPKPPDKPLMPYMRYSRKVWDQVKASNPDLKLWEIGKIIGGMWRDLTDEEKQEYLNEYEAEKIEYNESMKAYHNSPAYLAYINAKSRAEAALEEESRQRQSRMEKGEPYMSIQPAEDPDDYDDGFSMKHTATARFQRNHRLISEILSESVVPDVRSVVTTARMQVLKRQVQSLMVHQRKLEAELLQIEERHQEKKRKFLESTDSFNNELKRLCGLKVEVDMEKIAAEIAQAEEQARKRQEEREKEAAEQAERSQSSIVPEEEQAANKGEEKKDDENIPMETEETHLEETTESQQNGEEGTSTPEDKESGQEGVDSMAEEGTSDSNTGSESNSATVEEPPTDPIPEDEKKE
T15 sequence (Q68CP9 2-1835 limits assumed): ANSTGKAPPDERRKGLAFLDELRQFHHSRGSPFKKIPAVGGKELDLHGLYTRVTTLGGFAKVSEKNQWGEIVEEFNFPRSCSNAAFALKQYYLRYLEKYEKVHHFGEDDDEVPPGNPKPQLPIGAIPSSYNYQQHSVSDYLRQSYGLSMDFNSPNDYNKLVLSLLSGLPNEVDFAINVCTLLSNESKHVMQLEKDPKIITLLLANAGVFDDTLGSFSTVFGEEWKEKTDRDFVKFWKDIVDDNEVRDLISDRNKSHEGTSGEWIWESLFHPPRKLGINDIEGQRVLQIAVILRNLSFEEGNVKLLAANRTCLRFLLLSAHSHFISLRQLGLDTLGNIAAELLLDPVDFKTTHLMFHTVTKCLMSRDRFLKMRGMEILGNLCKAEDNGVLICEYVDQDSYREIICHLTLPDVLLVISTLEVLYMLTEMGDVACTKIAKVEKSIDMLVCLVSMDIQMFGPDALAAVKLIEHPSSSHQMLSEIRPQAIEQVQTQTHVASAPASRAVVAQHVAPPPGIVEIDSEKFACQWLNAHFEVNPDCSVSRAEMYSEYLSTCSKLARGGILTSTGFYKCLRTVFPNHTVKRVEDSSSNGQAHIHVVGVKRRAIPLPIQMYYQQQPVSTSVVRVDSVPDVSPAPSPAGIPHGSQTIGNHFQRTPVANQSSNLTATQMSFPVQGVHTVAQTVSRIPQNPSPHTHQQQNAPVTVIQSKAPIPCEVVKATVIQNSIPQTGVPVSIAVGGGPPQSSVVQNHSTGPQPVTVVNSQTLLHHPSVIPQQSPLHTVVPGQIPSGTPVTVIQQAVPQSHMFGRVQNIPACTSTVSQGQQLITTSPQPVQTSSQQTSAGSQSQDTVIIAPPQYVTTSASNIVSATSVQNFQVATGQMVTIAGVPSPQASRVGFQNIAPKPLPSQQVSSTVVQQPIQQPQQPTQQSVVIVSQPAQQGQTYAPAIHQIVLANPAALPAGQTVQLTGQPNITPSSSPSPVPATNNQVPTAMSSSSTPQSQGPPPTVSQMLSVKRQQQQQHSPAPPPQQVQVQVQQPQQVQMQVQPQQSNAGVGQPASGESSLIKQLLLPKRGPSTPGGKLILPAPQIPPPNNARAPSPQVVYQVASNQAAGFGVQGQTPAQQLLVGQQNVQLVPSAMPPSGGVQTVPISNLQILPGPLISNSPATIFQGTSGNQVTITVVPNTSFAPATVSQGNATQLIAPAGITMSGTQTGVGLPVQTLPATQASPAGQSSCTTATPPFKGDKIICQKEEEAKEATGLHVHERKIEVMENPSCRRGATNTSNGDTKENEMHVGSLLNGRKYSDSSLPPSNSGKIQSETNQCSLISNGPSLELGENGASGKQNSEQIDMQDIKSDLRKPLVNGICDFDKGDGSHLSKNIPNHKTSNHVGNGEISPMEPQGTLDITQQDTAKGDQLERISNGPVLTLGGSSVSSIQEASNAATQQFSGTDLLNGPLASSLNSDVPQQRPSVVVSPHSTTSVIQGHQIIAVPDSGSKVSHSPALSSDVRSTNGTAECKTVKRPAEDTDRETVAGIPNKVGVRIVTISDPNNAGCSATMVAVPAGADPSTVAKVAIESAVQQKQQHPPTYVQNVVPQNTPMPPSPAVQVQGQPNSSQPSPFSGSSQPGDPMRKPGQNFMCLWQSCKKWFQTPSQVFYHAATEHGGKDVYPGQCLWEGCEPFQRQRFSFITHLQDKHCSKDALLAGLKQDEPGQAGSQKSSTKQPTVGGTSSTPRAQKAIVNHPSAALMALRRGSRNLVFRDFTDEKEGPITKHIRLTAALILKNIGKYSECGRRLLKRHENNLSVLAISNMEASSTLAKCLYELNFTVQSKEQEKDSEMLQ

total peptides (SMARCE1): 114 peptides
unique peptides (SMARCE1): 33 peptides
total peptides (ARID1A): 321 peptides
unique peptides (ARID1A): 100 peptides
total peptides [1]: 8 peptides
unique peptides [1]: 2 peptides
total peptides [2]: 3 peptides
unique peptides [2]: 2 peptides
total peptides (SS18): 3 peptides
unique peptides (SS18): 2 peptides
total peptides [3]: 1 peptides
unique peptides [3]: 1 peptides
total peptides [4]: 2 peptides
unique peptides [4]: 1 peptides
total peptides (SMARCC1): 403 peptides
unique peptides (SMARCC1): 88 peptides
total peptides [5]: 1 peptides
unique peptides [5]: 1 peptides
total peptides [6]: 1 peptides
unique peptides [6]: 1 peptides
total peptides (ARID1B): 189 peptides
unique peptides (ARID1B): 75 peptides
total peptides (SMARCA2): 206 peptides
unique peptides (SMARCA2): 74 peptides
total peptides (SMARCC2): 172 peptides
unique peptides (SMARCC2): 55 peptides
total peptides (SMARCA4 [7]): 153 peptides
unique peptides (SMARCA4 [7]): 53 peptides
total peptides (ARID2): 55 peptides
unique peptides (ARID2): 41 peptides
B1: HA-SMARCD1 (other, human, UniProt Q96GM5 1-515, looked up)
chain: MAARAGFQSVAPSGGAGASGGAGAAAALGPGGTPGPPVRMGPAPGQGLYRSPMPGAAYPRPGMLPGSRMTPQGPSMGPPGYGGNPSVRPGLAQSGMDQSRKRPAPQQIQQVQQQAVQNRNHNAKKKKMADKILPQRIRELVPESQAYMDLLAFERKLDQTIMRKRLDIQEALKRPIKQKRKLRIFISNTFNPAKSDAEDGEGTVASWELRVEGRLLEDSALSKYDATKQKRKFSSFFKSLVIELDKDLYGPDNHLVEWHRTATTQETDGFQVKRPGDVNVRCTVLLMLDYQPPQFKLDPRLARLLGIHTQTRPVIIQALWQYIKTHKLQDPHEREFVICDKYLQQIFESQRMKFSEIPQRLHALLMPPEPIIINHVISVDPNDQKKTACYDIDVEVDDTLKTQMNSFLLSTASQQEIATLDNKIHETIETINQLKTQREFMLSFARDPQGFINDWLQSQCRDLKTMTDVVGNPEEERRAEFYFQPWAQEAVCRYFYSKVQQRRQELEQALGIRNT
notes: also called BAF60A; Q96GM5_SMRD1; not shown: HA tag

binding result (SMARCA4 [8]): binds
B2: PHF10 (other, human, UniProt Q8WUB8 2-498, looked up)
chain: AAAAGPGAALSPRPCDSDPATPGAQSPKDDNEDNSNDGTQPSKRRRMGSGDSSRSCETSSQDLGFSYYPAENLIEYKWPPDETGEYYMLQEQVSEYLGVTSFKRKYPDLERRDLSHKEKLYLRELNVITETQCTLGLTALRSDEVIDLMIKEYPAKHAEYSVILQEKERQRITDHYKEYSQMQQQNTQKVEASKVPEYIKKAAKKAAEFNSNLNRERMEERRAYFDLQTHVIQVPQGKYKVLPTERTKVSSYPVALIPGQFQEYYKRYSPDELRYLPLNTALYEPPLDPELPALDSDGDSDDGEDGRGDEKRKNKGTSDSSSGNVSEGESPPDSQEDSFQGRQKSKDKAATPRKDGPKRSVLSKSVPGYKPKVIPNAICGICLKGKESNKKGKAESLIHCSQCENSGHPSCLDMTMELVSMIKTYPWQCMECKTCIICGQPHHEEEMMFCDMCDRGYHTFCVGLGAIPSGRWICDCCQRAPPTPRKVGRRGKNSKEG
notes: Endogenous PBAF subunit; numbering on the printed UniProt entry; also called BAF45A

binding result [9]: binds
B3: GLTSCR1L (BRD4 Interacting Chromatin Remodeling Complex Associated Protein Like) (other, human, UniProt Q6AI39 1-1079, looked up)
chain: MDDDDDSCLLDLIGDPQALNYFLHGPSNKSSNDDLTNAGYSAANSNSIFANSSNADPKSSLKGVSNQLGEGPSDGLPLSSSLQFLEDELESSPLPDLTEDQPFDILQKSLQEANITEQTLAEEAYLDASIGSSQQFAQAQLHPSSSASFTQASNVSNYSGQTLQPIGVTHVPVGASFASNTVGVQHGFMQHVGISVPSQHLSNSSQISGSGQIQLIGSFGNHPSMMTINNLDGSQIILKGSGQQAPSNVSGGLLVHRQTPNGNSLFGNSSSSPVAQPVTVPFNSTNFQTSLPVHNIIIQRGLAPNSNKVPINIQPKPIQMGQQNTYNVNNLGIQQHHVQQGISFASASSPQGSVVGPHMSVNIVNQQNTRKPVTSQAVSSTGGSIVIHSPMGQPHAPQSQFLIPTSLSVSSNSVHHVQTINGQLLQTQPSQLISGQVASEHVMLNRNSSNMLRTNQPYTGPMLNNQNTAVHLVSGQTFAASGSPVIANHASPQLVGGQMPLQQASPTVLHLSPGQSSVSQGRPGFATMPSVTSMSGPSRFPAVSSASTAHPSLGSAVQSGSSGSNFTGDQLTQPNRTPVPVSVSHRLPVSSSKSTSTFSNTPGTGTQQQFFCQAQKKCLNQTSPISAPKTTDGLRQAQIPGLLSTTLPGQDSGSKVISASLGTAQPQQEKVVGSSPGHPAVQVESHSGGQKRPAAKQLTKGAFILQQLQRDQAHTVTPDKSHFRSLSDAVQRLLSYHVCQGSMPTEEDLRKVDNEFETVATQLLKRTQAMLNKYRCLLLEDAMRINPSAEMVMIDRMFNQEERASLSRDKRLALVDPEGFQADFCCSFKLDKAAHETQFGRSDQHGSKASSSLQPPAKAQGRDRAKTGVTEPMNHDQFHLVPNHIVVSAEGNISKKTECLGRALKFDKVGLVQYQSTSEEKASRREPLKASQCSPGPEGHRKTSSRSDHGTESKLSSILADSHLEMTCNNSFQDKSLRNSPKNEVLHTDIMKGSGEPQPDLQLTKSLETTFKNILELKKAGRQPQSDPTVSGSVELDFPNFSPMASQENCLEKFIPDHSEGVVETDSILEAAVNSILEC
notes: also called BICRAL; HA-GLTSCR1L

binding result [10]: binds
B4: BRD7 (Bromodomain-containing protein 7) (other, human, UniProt Q9NPI1 1-651, looked up)
chain: MGKKHKKHKSDKHLYEEYVEKPLKLVLKVGGNEVTELSTGSSGHDSSLFEDKNDHDKHKDRKRKKRKKGEKQIPGEEKGRKRRRVKEDKKKRDRDRVENEAEKDLQCHAPVRLDLPPEKPLTSSLAKQEEVEQTPLQEALNQLMRQLQRKDPSAFFSFPVTDFIAPGYSMIIKHPMDFSTMKEKIKNNDYQSIEELKDNFKLMCTNAMIYNKPETIYYKAAKKLLHSGMKILSQERIQSLKQSIDFMADLQKTRKQKDGTDTSQSGEDGGCWQREREDSGDAEAHAFKSPSKENKKKDKDMLEDKFKSNNLEREQEQLDRIVKESGGKLTRRLVNSQCEFERRKPDGTTTLGLLHPVDPIVGEPGYCPVRLGMTTGRLQSGVNTLQGFKEDKRNKVTPVLYLNYGPYSSYAPHYDSTFANISKDDSDLIYSTYGEDSDLPSDFSIHEFLATCQDYPYVMADSLLDVLTKGGHSRTLQEMEMSLPEDEGHTRTLDTAKEMEITEVEPPGRLDSSTQDRLIALKAVTNFGVPVEVFDSEEAEIFQKKLDETTRLLRELQEAQNERLSTRPPPNMICLLGPSYREMHLAEQVTNNLKELAQQVTPGDIVSTYGVRKAMGISIPSPVMENNFVDLTEDTEEPKKTDVAECGPGGS
notes: Endogenous subunit co-purified in native PBAF complex; The crosslink positions count on Q9NPI1; also called Q9NPI1
